The term Kd denotes the free concentration of one partner at which half of the binding sites on the other are occupied at equilibrium, for simple one-to-one binding.

Test [1] concerns the target recombinant human TLR-2 (Met1 to Leu590) (human, UniProt O60603 21-590, labeled with fluorophore NT-647). The test is described as follows: MST.
Test [2] has as its target recombinant human TLR-4 (Glu24 to Lys631) (human, UniProt O00206 24-631, labeled with fluorophore NT-647). Nature of the test: MST.

Sequence of recombinant human TLR-2 (Met1 to Leu590) (O60603 21-590): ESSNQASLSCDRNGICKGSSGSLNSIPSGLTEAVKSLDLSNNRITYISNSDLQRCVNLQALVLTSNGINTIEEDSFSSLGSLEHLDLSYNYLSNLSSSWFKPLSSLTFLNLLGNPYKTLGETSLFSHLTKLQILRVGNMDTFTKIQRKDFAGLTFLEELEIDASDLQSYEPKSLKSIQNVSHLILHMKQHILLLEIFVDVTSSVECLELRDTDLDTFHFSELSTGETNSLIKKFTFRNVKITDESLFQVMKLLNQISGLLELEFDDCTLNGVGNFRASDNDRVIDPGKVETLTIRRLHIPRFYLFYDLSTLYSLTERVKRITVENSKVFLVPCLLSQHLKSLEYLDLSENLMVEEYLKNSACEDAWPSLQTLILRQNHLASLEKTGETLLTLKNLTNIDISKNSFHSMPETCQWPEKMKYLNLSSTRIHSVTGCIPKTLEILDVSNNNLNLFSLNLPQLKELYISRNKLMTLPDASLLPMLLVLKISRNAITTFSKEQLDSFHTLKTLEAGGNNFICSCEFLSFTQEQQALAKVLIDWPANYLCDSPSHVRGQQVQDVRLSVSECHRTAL
Sequence of recombinant human TLR-4 (Glu24 to Lys631) (O00206 24-631): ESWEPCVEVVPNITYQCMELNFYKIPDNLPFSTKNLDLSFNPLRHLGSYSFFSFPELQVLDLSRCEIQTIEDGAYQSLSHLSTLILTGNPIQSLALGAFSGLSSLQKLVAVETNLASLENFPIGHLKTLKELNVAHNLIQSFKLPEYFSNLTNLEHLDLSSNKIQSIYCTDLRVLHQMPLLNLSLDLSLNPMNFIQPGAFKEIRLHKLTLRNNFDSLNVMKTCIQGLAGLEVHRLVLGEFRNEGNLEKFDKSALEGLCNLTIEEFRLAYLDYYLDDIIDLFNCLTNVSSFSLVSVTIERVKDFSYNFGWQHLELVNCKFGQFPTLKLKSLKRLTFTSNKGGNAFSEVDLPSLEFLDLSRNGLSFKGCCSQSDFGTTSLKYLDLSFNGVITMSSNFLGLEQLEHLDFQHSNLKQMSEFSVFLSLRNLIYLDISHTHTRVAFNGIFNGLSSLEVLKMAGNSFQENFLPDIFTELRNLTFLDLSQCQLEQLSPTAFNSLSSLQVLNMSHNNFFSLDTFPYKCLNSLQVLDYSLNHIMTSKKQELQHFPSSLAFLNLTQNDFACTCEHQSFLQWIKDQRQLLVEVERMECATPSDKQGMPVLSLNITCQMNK

B1: human biglycan (soluble biglycan proteoglycan) (natural protein, UniProt P21810 38-368, looked up)
chain: DEEASGADTSGVLDPDSVTPTYSAMCPFGCHCHLRVVQCSDLGLKSVPKEISPDTTLLDLQNNDISELRKDDFKGLQHLYALVLVNNKISKIHEKAFSPLRKLQKLYISKNHLVEIPPNLPSSLVELRIHDNRIRKVPKGVFSGLRNMNCIEMGGNPLENSGFEPGAFDGLKLNYLRISEAKLTGIPKDLPETLNELHLDHNKIQAIELEDLLRYSKLYRLGLGHNQIRMIENGSLSFLPTLRELHLDNNKLARVPSGLPDLKLLQVVYLHSNNITKVGVNDFCPMGFGVKRAYYNGISLFNNPVPYWEVQPATFRCVTDRLAIQFGNYKK
modifications: two chondroitin/dermatan sulfate chains
Turning to B1, the Kd was 31 nM in test [1] and 28 nM in test [2].
